The target of assay [1] is GST-CDK4 (UniProt P11802). As to the kind of experiment: MST; microscale thermophoresis of MBP-P16p and MBP-cycP16p with GST-CDK4; three replicate measurements.
Assay [2] has as its target CDK4 from MCF-7 cell lysate (human (endogenous in MCF-7)) (UniProt P11802).
Assay [3] shares this target. The source holds these as a separate data set.

This passage reports Kd, G0/G1 cell cycle arrest of MCF-7 cells treated for 24 h with different concentrations, flow cytometry; value and G0/G1 cell cycle arrest of MCF-7 cells, time course up to 72 h in serum-supplemented medium results from paper PMC10176472.

In the case of “cyclized MBP-P16p protein (MBP-cycP16p) (from UniProt P42771 83-103) (peptide)”, in assay [1], the dissociation constant (Kd) worked out at 27.7 nM.
As to “bicyclic cycRGD-mCh-cycP16p (from UniProt P42771 83-103)”, the G0/G1 cell cycle arrest of MCF-7 cells treated for 24 h with different concentrations, flow cytometry; value at 15 μM in assay [2] was determined as 76.7%. This substance also returned a G0/G1 cell cycle arrest of MCF-7 cells, time course up to 72 h in serum-supplemented medium in assay [3] of 88%.
For “MBP-P16p (linear counterpart of MBP-cycP16p) (from UniProt P42771 83-103) (peptide)”, the dissociation constant (Kd) in assay [1] was 117 nM.

The term Kd denotes the concentration at which binding is half-saturated. A low value points to higher affinity.
